What all share (settings): protein: recombinant; label: 32P end label on one strand; blunt
The target of data set [1] is T1, Apl (bacteriophage 186, UniProt P21681 1-87).
T1 sequence: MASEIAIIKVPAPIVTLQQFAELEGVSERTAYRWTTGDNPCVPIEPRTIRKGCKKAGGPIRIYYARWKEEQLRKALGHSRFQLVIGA
As to the kind of experiment: EMSA; up to 6400 nM Apl; EMSA: 50 mM Tris-HCl pH 7.5, 0.1 mM EDTA, 10% glycerol, 150 mM NaCl, on ice >=30 min, gel at 4 C; bending in TEG 50; footprint: same Tris/EDTA/glycerol with 75.

The target of data set [2] is T1, Apl. Description: EMSA; two retarded bands; EMSA: 50 mM Tris-HCl pH 7.5, 0.1 mM EDTA, 10% glycerol, 150 mM NaCl, on ice >=30 min, gel at 4 C; bending in TEG 50; footprint: same Tris/EDTA/glycerol with 75. (In general: A gel shift assay detects complexes by their altered migration in electrophoresis.)
Data set [3] addresses T1, Apl. As to the kind of experiment: EMSA; pattern similar to central five pR-pL operators; EMSA: 50 mM Tris-HCl pH 7.5, 0.1 mM EDTA, 10% glycerol, 150 mM NaCl, on ice >=30 min, gel at 4 C; bending in TEG 50; footprint: same Tris/EDTA/glycerol with 75.
Data set [4] concerns the target T1, Apl. As to the kind of experiment: EMSA; multiple shifted species; EMSA: 50 mM Tris-HCl pH 7.5, 0.1 mM EDTA, 10% glycerol, 150 mM NaCl, on ice >=30 min, gel at 4 C; bending in TEG 50; footprint: same Tris/EDTA/glycerol with 75.
Data set [5] concerns the target T1, Apl. As to the kind of experiment: EMSA; apparent Kd (50% DNA unbound); EMSA: 50 mM Tris-HCl pH 7.5, 0.1 mM EDTA, 10% glycerol, 150 mM NaCl, on ice >=30 min, gel at 4 C; bending in TEG 50; footprint: same Tris/EDTA/glycerol with 75.

B1: Apl 2 (two pR-pL operators) (dsDNA)
DNA 1: TTGATGGCAAGTGTTGGCAAACAG
DNA 2: CTGTTTGCCAACACTTGCCATCAA
With B1, the binding result in data set [1] is on record as “no binding”.

B2: Apl 1101 (dsDNA)
DNA 1: AACCCACGCAATTGATGGCAAGTGTCTTAGGACAGAGTCAAATCA
DNA 2: TGATTTGACTCTGTCCTAAGACACTTGCCATCAATTGCGTGGGTT
Turning to B2, the binding result in data set [1] is on record as “no binding”.

B3: Apl 4 (dsDNA)
DNA 1: TTGATGGCAAGTGTTGGCAAACAGAGTCAAATCAATTGCAAACTT
DNA 2: AAGTTTGCAATTGATTTGACTCTGTTTGCCAACACTTGCCATCAA
For B3, the binding result in data set [2] is recorded as “binds”.

B4: attP 5 (dsDNA)
DNA 1: ATCATTGACATAGATTGCCATTGTTTGCCAATAATTACCTATTATTCGCCATTTC
DNA 2: GAAATGGCGAATAATAGGTAATTATTGGCAAACAATGGCAATCTATGTCAATGAT
As to B4, the binding result in data set [3] was “binds”.

B5: Apl 6 (dsDNA)
DNA 1: TATTTTGGCTAAACCCACGCAATTGATGGCAAGTGTTGGCAAACAGAGTCAAATCAATTGCAAACTT
DNA 2: AAGTTTGCAATTGATTTGACTCTGTTTGCCAACACTTGCCATCAATTGCGTGGGTTTAGCCAAAATA
In the case of B5, in data set [4], the binding result was “binds”.

B6: Apl 10101 (dsDNA)
DNA 1: AACCCACGCAATTGACTTAGGGTGTTGGCAAACAGCTTAGGATCAATTGCAAACTT
DNA 2: AAGTTTGCAATTGATCCTAAGCTGTTTGCCAACACCCTAAGTCAATTGCGTGGGTT
Take B6: in data set [1], the binding result was “no binding”.

B7: Apl 101 (dsDNA)
DNA 1: TGATGGCAAGTGTCTTAGGACAGAGTCAAATCA
DNA 2: TGATTTGACTCTGTCCTAAGACACTTGCCATCA
In the case of B7, in data set [1], the binding result is given as “no binding”.

B8: Apl 7 (dsDNA)
DNA 1: TATTTTGGCTAAACCCACGCAATTGATGGCAAGTGTTGGCAAACAGAGTCAAATCAATTGCAAACTTTGGCTAATAGG
DNA 2: CCTATTAGCCAAAGTTTGCAATTGATTTGACTCTGTTTGCCAACACTTGCCATCAATTGCGTGGGTTTAGCCAAAATA
In the case of B8, the Kd in data set [5] was approximately 275 nM.

B9: Apl 3 (111) (dsDNA)
DNA 1: TTGATGGCAAGTGTTGGCAAACAGAGTCAAATCA
DNA 2: TGATTTGACTCTGTTTGCCAACACTTGCCATCAA
B9: in data set [5], the Kd is approximately 800 nM.

B10: Apl 5 (dsDNA)
DNA 1: AACCCACGCAATTGATGGCAAGTGTTGGCAAACAGAGTCAAATCAATTGCAAACTT
DNA 2: AAGTTTGCAATTGATTTGACTCTGTTTGCCAACACTTGCCATCAATTGCGTGGGTT
B10: the binding result in data set [2] was “binds”.

The values are drawn from article PMC7498355, “A quantitative binding model for the Apl protein, the dual purpose recombination-directionality factor and lysis-lysogeny regulator of bacteriophage 186”.
